Results on one molecule are retold here after article PMC3938326.

The series concerns the target T1, hPh1 FCS domain (Polyhomeotic homolog 1) (human, UniProt P78364 783-828).
T1 chain: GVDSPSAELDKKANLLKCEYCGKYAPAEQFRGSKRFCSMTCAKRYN
As to the kind of experiment: NMR HSQC titration.

The Kd is the free concentration of one partner at which half of the binding sites on the other are occupied at equilibrium, for simple one-to-one binding. A lower Kd goes with higher affinity. Consider GGGCACGCGUAUUGCCCUAGUGGCCGGCGUGCCC (structured_RNA) [34nt RNA], for which the Kd is 3000 ± 1100 µM.
